According to patent US20060223055A1:

The substances below were run against in vitro translated 35S-labeled Brd4-CTD (human) (UniProt O60885).

| Substance | percent of Brd4 bound compared to wild type E2 |
| --- | --- |
| GST-tagged HPV16 E2 W92A (from UniProt P03120 1-365) | < 20% |
| GST-tagged HPV16 E2 R37A (from UniProt P03120 1-365) | < 20% |
| GST-tagged HPV16 E2 W33A (from UniProt P03120 1-365) | < 20% |
| GST-tagged HPV16 E2 W134A (from UniProt P03120 1-365) | < 20% |

Each substance was assayed against His-Xpress-SV40NLS-HBrd41047-1362 (human) (UniProt O60885).

| Substance | percent of wild type E2 binding |
| --- | --- |
| HPV16 E2 F121A (pCMV4-16E2 mutant, expressed in C33A cells) (from UniProt P03120 1-365) | > 40% |
| HPV16 E2 Y178A (pCMV4-16E2 mutant, expressed in C33A cells) (from UniProt P03120 1-365) | > 40% |
| HPV16 E2 D122A (pCMV4-16E2 mutant, expressed in C33A cells) (from UniProt P03120 1-365) | > 40% |
| HPV16 E2 W92A (pCMV4-16E2 mutant, expressed in C33A cells) (from UniProt P03120 1-365) | < 10% |
| HPV16 E2 K68A (pCMV4-16E2 mutant, expressed in C33A cells) (from UniProt P03120 1-365) | > 40% |
| HPV16 E2 Y138A (pCMV4-16E2 mutant, expressed in C33A cells) (from UniProt P03120 1-365) | > 40% |
| HPV16 E2 E39A (pCMV4-16E2 mutant, expressed in C33A cells) (from UniProt P03120 1-365) | > 40% |
| HPV16 E2 L79A (pCMV4-16E2 mutant, expressed in C33A cells) (from UniProt P03120 1-365) | > 40% |
| HPV16 E2 R37A (pCMV4-16E2 mutant, expressed in C33A cells) (from UniProt P03120 1-365) | < 10% |
| HPV16 E2 E90A (pCMV4-16E2 mutant, expressed in C33A cells) (from UniProt P03120 1-365) | > 40% |
| HPV16 E2 W33A (pCMV4-16E2 mutant, expressed in C33A cells) (from UniProt P03120 1-365) | < 10% |
| HPV16 E2 T93A (pCMV4-16E2 mutant, expressed in C33A cells) (from UniProt P03120 1-365) | > 40% |
